According to patent US20220025010A1 (ANTAG THERAPEUTICS, published 2022):

T1: human GIP receptor (human, UniProt P48546 22-466)
T1 sequence (looked up): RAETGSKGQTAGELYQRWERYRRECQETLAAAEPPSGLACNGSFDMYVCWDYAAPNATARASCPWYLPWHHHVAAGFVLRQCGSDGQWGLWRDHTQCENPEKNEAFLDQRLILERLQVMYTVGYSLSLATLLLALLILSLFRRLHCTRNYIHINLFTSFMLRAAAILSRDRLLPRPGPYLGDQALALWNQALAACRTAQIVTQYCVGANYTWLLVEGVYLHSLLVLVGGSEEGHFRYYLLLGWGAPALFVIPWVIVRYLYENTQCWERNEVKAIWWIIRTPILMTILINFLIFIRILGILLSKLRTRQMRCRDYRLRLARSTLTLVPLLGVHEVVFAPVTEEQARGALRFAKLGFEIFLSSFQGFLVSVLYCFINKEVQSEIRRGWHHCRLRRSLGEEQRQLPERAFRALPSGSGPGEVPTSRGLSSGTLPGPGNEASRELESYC


Target: T1, human GIP receptor
Assay: cell-based or functional assay

Binder	CisBio cAMP agonism % Efficacy [%]	CisBio cAMP antagonism % inhib [%]	CisBio cAMP antagonism IC50 [nM]	CisBio cAMP antagonism pIC50	DiscoveRx cAMP antagonism % inhib [%]	DiscoveRx cAMP antagonism IC50 [nM]	DiscoveRx cAMP antagonism log IC50 [log M]	DiscoveRx cAMP agonism Emax
PGTFISDYSIAMDRIKQQDFVNWLLAQR (HELM PEPTIDE1{P.G.T.F.I.S.D.Y.S.I.A.M.D.R.I.K.Q.Q.D.F.V.N.W.L.L.A.Q.R.[am]}|PEPTIDE2{[O=C(O)CCCCCCCCCCCCCCC(=O)[*:2]].[gGlu]}$PEPTIDE1,PEPTIDE2,16:R3-2:R2$$$V2.0; N-terminus assumed; SMILES CC[C@H](C)[C@H](NC(=O)[C@H](CO)NC(=O)[C@H](Cc1ccc(O)cc1)NC(=O)[C@H](CC(=O)O)NC(=O)[C@H](CO)NC(=O)[C@@H](NC(=O)[C@H](Cc1ccccc1)NC(=O)[C@@H](NC(=O)CNC(=O)[C@@H]1CCCN1)[C@@H](C)O)[C@@H](C)CC)C(=O)N[C@@H](C)C(=O)N[C@@H](CCSC)C(=O)N[C@@H](CC(=O)O)C(=O)N[C@@H](CCCNC(=N)N)C(=O)N[C@H](C(=O)N[C@@H](CCCCNC(=O)CC[C@H](NC(=O)CCCCCCCCCCCCCCC(=O)O)C(=O)O)C(=O)N[C@@H](CCC(N)=O)C(=O)N[C@@H](CCC(N)=O)C(=O)N[C@@H](CC(=O)O)C(=O)N[C@@H](Cc1ccccc1)C(=O)N[C@H](C(=O)N[C@@H](CC(N)=O)C(=O)N[C@@H](Cc1c[nH]c2ccccc12)C(=O)N[C@@H](CC(C)C)C(=O)N[C@@H](CC(C)C)C(=O)N[C@@H](C)C(=O)N[C@@H](CCC(N)=O)C(=O)N[C@@H](CCCNC(=N)N)C(N)=O)C(C)C)[C@@H](C)CC) [AT506]	5	78	147	6.8	90	91	-7	–
GGTFISDYSIAMDRIKQQDFVNWLLAQR (HELM PEPTIDE1{G.G.T.F.I.S.D.Y.S.I.A.M.D.R.I.K.Q.Q.D.F.V.N.W.L.L.A.Q.R}|PEPTIDE2{[O=C(O)CCCCCCCCCCCCCCC(=O)[*:2]].[gGlu]}$PEPTIDE1,PEPTIDE2,16:R3-2:R2$$$V2.0; N-terminus assumed; SMILES CC[C@H](C)[C@H](NC(=O)[C@H](CO)NC(=O)[C@H](Cc1ccc(O)cc1)NC(=O)[C@H](CC(=O)O)NC(=O)[C@H](CO)NC(=O)[C@@H](NC(=O)[C@H](Cc1ccccc1)NC(=O)[C@@H](NC(=O)CNC(=O)CN)[C@@H](C)O)[C@@H](C)CC)C(=O)N[C@@H](C)C(=O)N[C@@H](CCSC)C(=O)N[C@@H](CC(=O)O)C(=O)N[C@@H](CCCNC(=N)N)C(=O)N[C@H](C(=O)N[C@@H](CCCCNC(=O)CC[C@H](NC(=O)CCCCCCCCCCCCCCC(=O)O)C(=O)O)C(=O)N[C@@H](CCC(N)=O)C(=O)N[C@@H](CCC(N)=O)C(=O)N[C@@H](CC(=O)O)C(=O)N[C@@H](Cc1ccccc1)C(=O)N[C@H](C(=O)N[C@@H](CC(N)=O)C(=O)N[C@@H](Cc1c[nH]c2ccccc12)C(=O)N[C@@H](CC(C)C)C(=O)N[C@@H](CC(C)C)C(=O)N[C@@H](C)C(=O)N[C@@H](CCC(N)=O)C(=O)N[C@@H](CCCNC(=N)N)C(=O)O)C(C)C)[C@@H](C)CC) [AT263]	0	69	21	6.7	–	74	-7.1	8
